The results in this text go back to IntAct's records for PubMed 17954917.

The chains are these.
B1: Ephrin-B1 (Xenopus laevis (African clawed frog)), O13097 (parent)
chain: MEGLRRLLGLLLVLYRLCSALGKNLEPVTWNSQNPRFISGKGLVLYPEIGDRLDIICPKGDSSQPYEYYKLYMVRRDQLEACSTVIDPNVLVTCNQPGKEYRFTIKFQEFSPNYMGLEFRRNQDYYITSTSNSTLQGLENREGGVCQTRSMKIIMKVGQDPNAVPPEQLTTTRPSKEADNTGKIATFGPWNGPVENPGKSDTNLSDKPTAGGGVDGFFNSKIAVFAAIGAGCVIFILIIIFLVVLLIKIRKRHRKHTQQRAAALSLSTLASPKCSGNAGSEPSDIIIPLRTTENNYCPHYEKVSGDYGHPVYIVQEMPPQSPANIYYKV
B2: Signal transducer and activator of transcription 3 (Rattus norvegicus (Rat)), P52631 (parent)
chain: MAQWNQLQQLDTRYLEQLHQLYSDSFPMELRQFLAPWIESQDWAYAASKESHATLVFHNLLGEIDQQYSRFLQESNVLYQHNLRRIKQFLQSRYLEKPMEIARIVARCLWEESRLLQTAATAAQQGGQANHPTAAVVTEKQQMLEQHLQDVRKRVQDLEQKMKVVENLQDDFDFNYKTLKSQGDMQDLNGNNQSVTRQKMQQLEQMLTALDQMRRSIVSELAGLLSAMEYVQKTLTDEELADWKRRQQIACIGGPPNICLDRLENWITSLAESQLQTRQQIKKLEELQQKVSYKGDPIVQHRPMLEERIVDLFRNLMKSAFVVERQPCMPMHPDRPLVIKTGVQFTTKVRLLVKFPELNYQLKIKVCIDKDSGDVAALRGSRKFNILGTNTKVMNMEESNNGSLSAEFKHLTLREQRCGNGGRANCDASLIVTEELHLITFETEVYHQGLKIDLETHSLPVVVISNICQMPNAWASILWYNMLTNNPKNVNFFTKPPIGTWDQVAEVLSWQFSSTTKRGLSIEQLTTLAEKLLGPGVNYSGCQITWAKFCKENMAGKGFSFWVWLDNIIDLVKKYILALWNEGYIMGFISKERERAILSTKPPGTFLLRFSESSKEGGVTFTWVEKDISGKTQIQSVEPYTKQQLNNMSFAEIIMGYKIMDATNILVSPLVYLYPDIPKEEAFGKYCRPESQEHPEADPGSAAPYLKTKFICVTPTTCSNTIDLPMSPRTLDSLMQFGNNGEGAEPSAGGQFESLTFDMDLTSECATSPM
partner: B1 chain

The first experiment covers variants of B1. Particulars: with stat3_rat Stat3, P52631.
On to Y296F;Y307F;Y312F, for which the “effect of a mutation on the interaction” value is recorded as “decreasing interaction strength”.

Take Y296F;Y312F: the “effect of a mutation on the interaction” value was “decreasing interaction strength”.

The next experiment covers variants of B2. Particulars: with efnb1_xenla efnb1, O13097.
On to R609L, for which the “effect of a mutation on the interaction” value is given as “disrupting interaction strength”.
